Laboratory results published in PMC2148200.

Experiments:
TGF-β1 = assay: ELISA
[1] = molecular target: human recombinant BMP-2 (human) (UniProt P12643); assay: ELISA
Chain of human recombinant BMP-2 (human) (P12643 283-396): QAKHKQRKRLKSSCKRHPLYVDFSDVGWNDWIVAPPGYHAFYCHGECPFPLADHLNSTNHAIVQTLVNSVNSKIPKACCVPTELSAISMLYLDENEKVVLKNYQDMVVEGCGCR

recombinant human type IIA procollagen NH2-propeptide (rhIIA-GST, exon 2-GST fusion protein) (domain or fragment)
Kd (TGF-β1): 7.65 nM | Kd [1]: 5.23 nM
